# Results reported in patent US20170088602A1 (Bristol-Myers Squibb, published 2017).
# Where two headings read alike, the source gives them in different places.
# T1: human myostatin (mature, recombinant; R&D Systems) (human, UniProt O14793 267-375)
# T1 construct: biotinylated in the mRNA display selection; also called GDF-8; mature myostatin
# T1 sequence: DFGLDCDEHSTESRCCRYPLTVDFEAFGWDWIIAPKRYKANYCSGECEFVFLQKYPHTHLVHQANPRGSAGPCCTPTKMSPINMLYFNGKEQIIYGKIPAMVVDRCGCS
# T2: human BMP-11 (GDF-11; R&D Systems) (human, UniProt O95390 299-407)
# T2 sequence (looked up): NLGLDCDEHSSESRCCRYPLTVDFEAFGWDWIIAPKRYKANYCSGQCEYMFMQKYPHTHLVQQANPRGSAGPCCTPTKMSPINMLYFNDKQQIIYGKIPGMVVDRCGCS
# T3: human Activin A (R&D Systems) (human, UniProt P08476 311-426)
# T3 sequence (looked up): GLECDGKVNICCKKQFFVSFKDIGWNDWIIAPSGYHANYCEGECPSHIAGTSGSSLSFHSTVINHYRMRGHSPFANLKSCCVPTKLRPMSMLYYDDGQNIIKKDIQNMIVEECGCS
# Legend:
# [1] = molecular target: T1, human myostatin (mature, recombinant; …); test: SPR format A, 25C
# From the text: (§1) Anti-human Fc antibody (Biacore/GE) was immobilized on a Biacore CM5 chip via NHS/EDC coupling according to the manufacturer's instructions. […] A concentration range of anti-myostatin Adnectin was applied across all flow cells in HBSP running buffer. Regeneration of the chip surface between cycles was accomplished with two 30 second pulses of 3M MgCl₂. Kinetic traces of reference-subtracted sensorgrams were fit to a 1:1 binding model using Biaevaluation software.
# [2] = molecular target: T2, human BMP-11 (GDF-11; R&D Systems); test: SPR format A, 25C
# From the text: as §1
# [3] = molecular target: T1, human myostatin (mature, recombinant; …); test: cell-based or functional assay
# [4] = molecular target: T2, human BMP-11 (GDF-11; R&D Systems); test: cell-based or functional assay
# [5] = molecular target: T3, human Activin A (R&D Systems); test: cell-based or functional assay
# [6] = molecular target: T1, human myostatin (mature, recombinant; …); test: competitive HTRF (1889E01/myostatin/ActRIIb-Fc sandwich)
# From the text: An HTRF assay was used to measure the binding affinities of anti-myostatin Adnectins to myostatin. […] The Eu-W 1024 labeled Streptavidin is used to bind biotinylated 1889E01. […] In the presence of a competitive Adnectin, the HTRF signal decreases.
# [7] = molecular target: T3, human Activin A (R&D Systems); test: SPR format A, 25C
# From the text: as §1
# [8] = molecular target: T1, human myostatin (mature, recombinant; …); test: cell-based or functional assay; remark: listed apart in the source
# [9] = molecular target: T2, human BMP-11 (GDF-11; R&D Systems); test: cell-based or functional assay; remark: listed apart in the source
# [10] = molecular target: T3, human Activin A (R&D Systems); test: cell-based or functional assay; remark: listed apart in the source
# [11] = molecular target: T1, human myostatin (mature, recombinant; …); test: cell-based or functional assay; remark: listed apart in the source
# [12] = molecular target: T1, human myostatin (mature, recombinant; …); test: cell-based or functional assay; remark: listed apart in the source
# [13] = molecular target: T1, human myostatin (mature, recombinant; …); test: cell-based or functional assay; remark: listed apart in the source
# [14] = molecular target: T1, human myostatin (mature, recombinant; …); test: competitive HTRF, alanine scan
Binder,Kd [1] [nM],Kd [2] [nM],ARE-luciferase IC50 [3] [nM],ARE-luciferase IC50 [4] [nM],ARE-luciferase IC50 [5] [nM],IC50 [6] [nM],binding result [7],ARE-luciferase IC50 [8] [nM],ARE-luciferase IC50 [9] [nM],ARE-luciferase IC50 [10] [nM],"pSmad2 IC50, 12-point [11] [nM]","ARE-luciferase cell-based assay, IC50 relative to parent sequence [12] [fold]",Myostatin ARE-luc IC50 [13] [nM],IC50 [14] [nM]
"ATI-1379 [40K 2-branch PEG] (designed binder, 40K 2-branch PEG on the Cys of the EGSGC tail) MGVSDVPRDLEVVAATPTSLLISWSLPHQGKANYYRITYGETGGNSPVQEFTVPGRGVTATISGLKPGVDYTITVYAVTVTDTGYLKYKPISINYRTEGSGCHHHHHH",9.5,21.6,0.1,4.3,> 1000,0.28,,,,,,,,
"ATI-1106 [40K 2-branch PEG] (designed binder, 40K 2-branch PEG on the Cys of the GSGC tail) MGVSDVPRDLEVVAATPTSLLISWVSPRGRARYYRITYGETGGNSPVQEFTVPGRGSTATISGLKPGVDYTITVYAVTIYRDGMSHHDPISINYRTGSGCHHHHHH",,,177,1410,> 2000,,,,,,,,,
"1979_B06 (designed binder, monoAdnectin with His6 tag; also called ATI-1133) MGVSDVPRDLEVVAATPTSLLISWSLPHAGHVNYYRITYGETGGNSPVQEFTVPGRGVTATISGLKPGVDYTITVYAVTLTKSQMIHYMPISINYRTEIDKPSQHHHHHH",29,489,,,,,no binding,0.11,3.3,194,12.8,,,
2524_E10 (designed binder) MGVSDVPRDLEVVAATPTSLLISWSLPFAGHLNYYRITYGETGGNSPVQEFTVPGRGVTATISGLKPGVDYTITVYAVTLTRSKIIHYMPISINYRTEIDKPSQHHHHHH,1.34,1.42,,,,,no binding,0.09,5.6,> 1000,0.13,,,
2524_H11 (designed binder) MGVSDVPRDLEVVAATPTSLLISWSLPHAGHAHYYRITYGETGGNSPVQEFTVPGRGVTATISGLKPGVDYTITVYAVTVSSTKVIVYLPISINYRTEIDKPSQHHHHHH,1.12,1.22,,,,,no binding,0.03,6.2,> 1000,0.11,,,
3116_A06 Y85A (designed binder) MGVSDVPRDLEVVAATPTSLLISWSLPHQGKANYYRITYGETGGNSPVQEFTVPGRGVTATISGLKPGVDYTITVYAVTVTDTGALKYKPISINYRTEIDKPSQHHHHHH,,,,,,,,,,,,> 10,5.5,2
3116_A06 L26A (designed binder) MGVSDVPRDLEVVAATPTSLLISWSAPHQGKANYYRITYGETGGNSPVQEFTVPGRGVTATISGLKPGVDYTITVYAVTVTDTGYLKYKPISINYRTEIDKPSQHHHHHH,,,,,,,,,,,,> 10,16,2.3
"ATI-1376 [40K 2-branch PEG] (designed binder, 40K 2-branch PEG on the Cys of the EGSGC tail, cysteine mutant of 3115_E06) MGVSDVPRDLEVVAATPTSLLISWDAPAGLARYYRITYGETGGNSPVQEFTVVGRGNTATISGLKPGVDYTITVYAVTIFRDGPVTWDPISINYRTEGSGCHHHHHH",8.21,13.4,0.03,0.83,> 1000,0.32,,,,,,,,
"ATI-1375 [40K 2-branch PEG] (designed binder, 40K 2-branch PEG on the Cys of the EGSGC tail, cysteine mutant of 3115_D04) MGVSDVPRDLEVVAATPTSLLISWDAPRGLARYYRITYGETGGNSPVQEFTVFGRGTTATISGLKPGVDYTITVYAVTIDRDGTRSFDPISINYRTEGSGCHHHHHH",12.6,33.2,0.17,1.6,> 1000,0.76,,,,,,,,

# Further lines, results first:
Kd [1] [nM],Kd [2] [nM],ARE-luciferase IC50 [3] [nM],ARE-luciferase IC50 [4] [nM],ARE-luciferase IC50 [5] [nM],IC50 [6] [nM],binding result [7],ARE-luciferase IC50 [8] [nM],ARE-luciferase IC50 [9] [nM],ARE-luciferase IC50 [10] [nM],"pSmad2 IC50, 12-point [11] [nM]","ARE-luciferase cell-based assay, IC50 relative to parent sequence [12] [fold]",Myostatin ARE-luc IC50 [13] [nM],IC50 [14] [nM],Binder
0.76,2.57,0.12,0.89,2000,0.21,,,,,,,,,"ATI-1266 [40K 2-branch PEG] (designed binder, 40K 2-branch PEG on the Cys of the EGSGC tail, cysteine mutant of 2525_D02) MGVSDVPRDLEVVAATPTSLLISWTLPHAGRAHYYRITYGETGGNSPVQEFTVPGRGVTATISGLKPGVDYTITVYAVTVTTTSVILYKPISINYRTEGSGCHHHHHH"
,,0.03,0.14,14,0.13,,,,,,,,,"ATI-1341 [20K Bis-PEG] (designed binder, two Adnectins joined through their tail Cys to the two ends of a 20 kDa bis-PEG, bivalent PEGylated form of the 2987_H07 cysteine mutant) MGVSDVPRDLEVVAATPTSLLISWTLPHAGRAHYYRITYGETGGNSPVQEFTVPGRGVTATISGLKPGVDYTITVYAVTVTTTKVIHYKPISINYRTEGSGCHHHHHH"
14.4,59.6,0.29,5.4,> 1000,1.29,,,,,,,,,"ATI-1378 [40K 2-branch PEG] (designed binder, 40K 2-branch PEG on the Cys of the EGSGC tail, cysteine mutant of 3146_A08) MGVSDVPRDLEVVAATPTSLLISWSLPNPGNAHYYRITYGETGGNSPVQEFTVPGRGVTATISGLKPGVDYTITVYAVTVTDTGFITYKPISINYRTEGSGCHHHHHH"
7.9,35.5,0.26,3.1,> 1000,0.36,,,,,,,,,"ATI-1359 [40K 2-branch PEG] (designed binder, 40K 2-branch PEG on the Cys of the EGSGC tail) MGVSDVPRDLEVVAATPTSLLISWTLPHAGRAHYYRITYGETGGNSPVQEFTVPGRGVTATISGLKPGVDYTITVYAVTVTTTKVIHYKPISINYRTEGSGC"
0.62,0.67,,,,,no binding,0.1,0.89,765,0.14,,,,2524_C11 (designed binder) MGVSDVPRDLEVVAATPTSLLISWTLPHAGLAHYYRITYGETGGNSPVQEFTVPGRGVTATISGLKPGVDYTITVYAVTLTNSEIILYKPISINYRTEIDKPSQHHHHHH
,,,,,,,,,,,> 10,6.2,0.8,3116_A06 H28A (designed binder) MGVSDVPRDLEVVAATPTSLLISWSLPAQGKANYYRITYGETGGNSPVQEFTVPGRGVTATISGLKPGVDYTITVYAVTVTDTGYLKYKPISINYRTEIDKPSQHHHHHH
,,,,,,,,,,,> 10,10,1,3116_A06 P27A (designed binder) MGVSDVPRDLEVVAATPTSLLISWSLAHQGKANYYRITYGETGGNSPVQEFTVPGRGVTATISGLKPGVDYTITVYAVTVTDTGYLKYKPISINYRTEIDKPSQHHHHHH
,,,,,,,,,,,> 10,9.8,2,3116_A06 N33A (designed binder) MGVSDVPRDLEVVAATPTSLLISWSLPHQGKAAYYRITYGETGGNSPVQEFTVPGRGVTATISGLKPGVDYTITVYAVTVTDTGYLKYKPISINYRTEIDKPSQHHHHHH
,,,,,,,,,,,> 10,12,1.4,3116_A06 L86A (designed binder) MGVSDVPRDLEVVAATPTSLLISWSLPHQGKANYYRITYGETGGNSPVQEFTVPGRGVTATISGLKPGVDYTITVYAVTVTDTGYAKYKPISINYRTEIDKPSQHHHHHH
8.21,14.2,0.05,0.78,> 1000,0.15,,,,,,,,,"ATI-1377 [40K 2-branch PEG] (designed binder, 40K 2-branch PEG on the Cys of the EGSGC tail) MGVSDVPRDLEVVAATPTSLLISWDAPKGLARYYRITYGETGGNSPVQEFTVVGRGNTATISGLKPGVDYTITVYAVTIFRDGPVTWDPISINYRTEGSGCHHHHHH"
